Numbering of substitutions follows the chain as printed.
B1: TCN-553 (5261_C18) (antibody, V domains shown)
VH: QVQVVQSGTEVKKPGSSVKVSCQTSGGRFMSYAITWVRQAPGQGLEWMGGIVPVFGTANYAQKFQGRVTITTDDSTRTAYMELSSLRSEDTAVYYCGFRYGSGYGFDSWGQGTLVTVSS
VL: EIVLTQSPGTLSLSPGERATLSCRASQSVSSSYLAWYQKKPGQAPRLLIYGASTRATGIPDRFTGSGSGTDFTLSISRLEPEDFAVYYCQHFGTSVFTFGGGTKVEIK
B2: TCN-552 (5249_I23) (antibody, V domains shown)
VH: QVQVVQSGAEVKKPGSSVRVSCQASGGTFMNYAIIWVRRAPGQGLEWMGGIIPVFPTPNYAQMFQGRVTISTDESRSTSFLELTNLRYEDTAVYYCARRIYHGGNSGFDFWGQGTLVTVSS
VL: EIVLTQSPATLSLSPGERATLSCRASQSVGNYLAWYQQKPGQAPRLLIYDSSNRAPGIPARFSGSGSGTDFTLTISSLAPEDFAVYYCQQRSKWPPMYSFGHGTKLEIK
B3: TCN-539 (5056_A08) (antibody, V domains shown)
VH: QVQLVESGGGVVQPGRSLRLSCAASEITFITYAMHWVRQAPGKGLEWVALISDDGSNKFYADSVKGRFTISRDNSKNTLYLQMNSLRAEDTAAYYCAREGVYFDSGTYRGYFDYWGQETLVTVSS
VL: EIVLTQSPATLSLSPGERATLSCRASQSVSSYLAWYQQKPGQAPRLLIYDASNRATGIPARFSGSGSGTDFTLTISSLEPEDFAVYYCQQRSHWPPITFGQGTRLEIK
B4: TCN-555 (5246_L16) (antibody, V domains shown)
VH: QVQLVQSGAEVKRPGSSVKVSCTASGGIFRKNAISWVRQAPGQGLEWMGGIIAVFNTANYAQKFQNRVKITADESGNTAYMELSSLTSDDTAVYYCASHPKYFYGSGSYPDFWGQGTLVTVSS
VL: QSALTQPRSVSGSPGQSITISCTGGSSDIGASNSVSWYQQHPGKAPKLVIFDVTERPSGVPHRFSGSKSGNTASLTVSGLQPDDEADYFCCAYGGKYLVVFGGGTKVTVL
B5: TCN-563 (5237_B21) (antibody, V domains shown)
VH: B4 VH with V5A, N66G, T87R
VL: B4 VL with I18V, G25S, I29V, F51Y, D83E

target: recombinant soluble homotrimeric HA of A/Anhui/1/05 (H5N1) (Influenza A virus A/Anhui/1/2005(H5N1)); assay: HA microarray, BCC supernatant; settings: remark: other sources report otherwise

Binder	Trimeric HA Binding: RLU
B1	12600 RLU
B2	4160 RLU
B3	91 RLU
B4	1500 RLU
B5	9580 RLU

target: recombinant soluble homotrimeric HA of A/California/4/09 (H1N1) (Influenza A virus A/California/04/2009(H1N1)); assay: HA microarray, BCC supernatant; settings: remark: other sources report otherwise

Binder	Trimeric HA Binding: RLU
B1	20300 RLU
B2	35300 RLU
B4	44900 RLU
B5	45200 RLU

target: recombinant soluble homotrimeric HA of A/Indonesia/5/05 (H5N1) (Influenza A virus A/Indonesia/5/2005(H5N1)); assay: HA microarray, BCC supernatant; settings: remark: other sources report otherwise

Binder	Trimeric HA Binding: RLU
B1	24400 RLU
B2	43600 RLU
B4	34500 RLU
B5	39500 RLU

target: recombinant soluble homotrimeric HA of A/Japan/305/57 (H2N2) (Influenza A virus A/Japan/305/1957(H2N2)); assay: HA microarray, BCC supernatant; settings: remark: other sources report otherwise

Binder	Trimeric HA Binding: RLU
B1	25500 RLU
B2	23800 RLU
B3	468 RLU
B4	2130 RLU
B5	6610 RLU

target: recombinant soluble homotrimeric HA of A/Netherlands/219/03 (H7N7) (Influenza A virus A/Netherlands/219/03(H7N7)); assay: HA microarray, BCC supernatant; settings: remark: other sources report otherwise

Binder	Trimeric HA Binding: RLU
B1	1840 RLU
B2	1240 RLU
B3	1700 RLU
B4	3400 RLU
B5	7520 RLU

target: recombinant soluble homotrimeric HA of A/Solomon Islands/3/06 (H1N1) (Influenza A virus A/Solomon Islands/3/2006(H1N1)); assay: HA microarray, BCC supernatant; settings: remark: other sources report otherwise

Binder	Trimeric HA Binding: RLU
B1	16300 RLU
B2	39300 RLU
B3	239 RLU
B4	26400 RLU
B5	30000 RLU

target: recombinant soluble homotrimeric HA of A/Vietnam/1203/04 (H5N1) (Influenza A virus A/VietNam/1203/2004(H5N1)); assay: HA microarray, BCC supernatant; settings: remark: other sources report otherwise

Binder	Trimeric HA Binding: RLU
B1	6560 RLU
B2	2730 RLU
B3	545 RLU
B4	876 RLU
B5	4840 RLU

target: recombinant soluble homotrimeric HA of A/Wisconsin/67/05 (H3N2) (Influenza A virus A/Wisconsin/67/2005(H3N2)); assay: HA microarray, BCC supernatant; settings: remark: other sources report otherwise

Binder	Trimeric HA Binding: RLU
B1	20000 RLU
B2	14800 RLU
B3	715 RLU
B4	9800 RLU
B5	40800 RLU

target: recombinant soluble homotrimeric HA of A/chicken/Vietnam/NCVD-016/08 (H5N1) (Influenza A virus A/chicken/Vietnam/NCVD-016/2008(H5N1)); assay: HA microarray, BCC supernatant; settings: remark: other sources report otherwise

Binder	Trimeric HA Binding: RLU
B1	24200 RLU
B2	46200 RLU
B3	100 RLU
B4	22300 RLU
B5	41000 RLU

target: recombinant soluble homotrimeric HA of A/duck/Yangzhou/02/05 (H8N4) (Influenza A virus A/duck/Yangzhou/02/2005(H8N4)); assay: HA microarray, BCC supernatant; settings: remark: other sources report otherwise

Binder	Trimeric HA Binding: RLU
B1	28000 RLU
B2	13100 RLU
B4	18400 RLU
B5	46700 RLU

target: recombinant soluble homotrimeric HA of A/northern shoveler/California/HKWF115/07 (H6) (Influenza A virus A/northern shoveler/California/HKWF115/2007(H6N1)); assay: HA microarray, BCC supernatant; settings: remark: other sources report otherwise

Binder	Trimeric HA Binding: RLU
B1	21700 RLU
B2	38400 RLU
B3	814 RLU
B4	49500 RLU
B5	27300 RLU

target: recombinant soluble homotrimeric HA of A/swine/Ontario/01911-2/99 (H4N6) (Influenza A virus A/Swine/Ontario/01911-2/99 (H4N6)); assay: HA microarray, BCC supernatant; settings: remark: other sources report otherwise

Binder	Trimeric HA Binding: RLU
B1	2580 RLU
B3	1580 RLU
B5	4500 RLU

target: recombinant homotrimeric HA A/Anhui/1/05 H5N1 (Influenza A virus A/Anhui/1/2005(H5N1)); assay: protein microarray, purified IgG, trimeric HA; settings: remark: other sources report otherwise

Binder	Trimeric HA Binding: RLU
B1	9030 RLU
B2	4520 RLU
B3	570 RLU
B4	6630 RLU

target: recombinant homotrimeric HA A/California/4/09 H1N1 (Influenza A virus A/California/04/2009(H1N1)); assay: protein microarray, purified IgG, trimeric HA; settings: remark: other sources report otherwise

Binder	Trimeric HA Binding: RLU
B1	25100 RLU
B2	23900 RLU
B3	129 RLU
B4	25500 RLU

target: recombinant homotrimeric HA A/Egypt/3300-NAMRU3/08 H5N1 (Influenza A virus A/Egypt/3300-NAMRU3/2008(H5N1)); assay: protein microarray, purified IgG, trimeric HA; settings: remark: other sources report otherwise

Binder	Trimeric HA Binding: RLU
B1	24600 RLU
B2	20300 RLU
B4	20200 RLU

target: recombinant homotrimeric HA A/Hong Kong/1073/99 H9N2 (Influenza A virus A/Hong Kong/1073/99 (H9N2)); assay: protein microarray, purified IgG, trimeric HA; settings: remark: other sources report otherwise

Binder	Trimeric HA Binding: RLU
B1	6690 RLU
B3	416 RLU
B4	3440 RLU

target: recombinant homotrimeric HA A/Hong Kong/156/97 H5N1 (Influenza A virus A/Hong Kong/156/97 (H5N1)); assay: protein microarray, purified IgG, trimeric HA; settings: remark: other sources report otherwise

Binder	Trimeric HA Binding: RLU
B1	24000 RLU
B2	16200 RLU
B3	103 RLU
B4	13100 RLU

target: recombinant homotrimeric HA A/Hong Kong/2108/03 H9N2 (Influenza A virus A/HK/2108/2003(H9N2)); assay: protein microarray, purified IgG, trimeric HA; settings: remark: other sources report otherwise

Binder	Trimeric HA Binding: RLU
B1	172 RLU
B2	161 RLU
B3	140 RLU
B4	302 RLU

target: recombinant homotrimeric HA A/Indonesia/5/05 H5N1 (Influenza A virus A/Indonesia/5/2005(H5N1)); assay: protein microarray, purified IgG, trimeric HA; settings: remark: other sources report otherwise

Binder	Trimeric HA Binding: RLU
B1	26000 RLU
B2	23600 RLU
B4	15600 RLU

target: recombinant homotrimeric HA A/Japan/305/57 H2N2 (Influenza A virus A/Japan/305/1957(H2N2)); assay: protein microarray, purified IgG, trimeric HA; settings: remark: other sources report otherwise

Binder	Trimeric HA Binding: RLU
B1	25700 RLU
B2	24700 RLU
B3	544 RLU
B4	10700 RLU

target: recombinant homotrimeric HA A/Netherlands/219/03 H7N7 (Influenza A virus A/Netherlands/219/03(H7N7)); assay: protein microarray, purified IgG, trimeric HA; settings: remark: other sources report otherwise

Binder	Trimeric HA Binding: RLU
B1	499 RLU
B2	470 RLU
B3	161 RLU
B4	1330 RLU

target: recombinant homotrimeric HA A/Solomon Islands/3/06 H1N1 (Influenza A virus A/Solomon Islands/3/2006(H1N1)); assay: protein microarray, purified IgG, trimeric HA; settings: remark: other sources report otherwise

Binder	Trimeric HA Binding: RLU
B1	24600 RLU
B2	19400 RLU
B3	1060 RLU
B4	17900 RLU

target: recombinant homotrimeric HA A/South Carolina/1/18 H1N1 (Influenza A virus A/South Carolina/1/18 (H1N1)); assay: protein microarray, purified IgG, trimeric HA; settings: remark: other sources report otherwise

Binder	Trimeric HA Binding: RLU
B1	20600 RLU
B2	14200 RLU
B3	60 RLU
B4	13700 RLU

target: recombinant homotrimeric HA A/Vietnam/1203/04 H5N1 (Influenza A virus A/VietNam/1203/2004(H5N1)); assay: protein microarray, purified IgG, trimeric HA; settings: remark: other sources report otherwise

Binder	Trimeric HA Binding: RLU
B1	27200 RLU
B2	27000 RLU
B3	636 RLU
B4	26500 RLU

target: recombinant homotrimeric HA A/Wisconsin/67/05 H3N2 (Influenza A virus A/Wisconsin/67/2005(H3N2)); assay: protein microarray, purified IgG, trimeric HA; settings: remark: other sources report otherwise

Binder	Trimeric HA Binding: RLU
B1	197 RLU
B2	123 RLU
B3	8850 RLU
B4	369 RLU

target: recombinant homotrimeric HA A/chicken/Vietnam/NCVD-016/08 H5N1 (Influenza A virus A/chicken/Vietnam/NCVD-016/2008(H5N1)); assay: protein microarray, purified IgG, trimeric HA; settings: remark: other sources report otherwise

Binder	Trimeric HA Binding: RLU
B1	12400 RLU
B2	4300 RLU
B3	144 RLU
B4	4420 RLU

target: recombinant homotrimeric HA A/northern shoveler/California/HKWF115/07 H6N4 (Influenza A virus A/northern shoveler/California/HKWF115/2007(H6N1)); assay: protein microarray, purified IgG, trimeric HA; settings: remark: other sources report otherwise

Binder	Trimeric HA Binding: RLU
B1	20200 RLU
B2	8970 RLU
B3	124 RLU
B4	15600 RLU
